Laboratory results reported in the RNAGym collection of RNA variant scans (doi:10.1021/acssynbio.7b00057).

B1: Pistol ribozyme (parent)
chain: GGGUCGUUGUUCCAUAAUCGCGUGGAUAUGGCACGCAAGUUUCUACCGGGCACCGUAAAUGUCCGACUGGAGCCGUUCGGGCGGCUAUAAACAGACCUCAGGCCCGAAGCGUGGCGGCACCUGCCGCCGGUGGUAAAAAAGAUCGGAAGAGCACACGUCU

Variants of: B1
Test: aptazyme ON/OFF ratio, guanine; higher = stronger switching; co-transcriptional cleavage with and without guanine

| Variant | aptazyme ON/OFF ratio |
| --- | --- |
| U7G U11C C12G C13U | 1.14 |
| U7G U10G U11G C12U C13U | 1.36 |
| U7G U10G U11G C12U C13G | 1.17 |
| U7G U10G U11G C12U C13A | 1.13 |
| U8A G9A U10A U11G C12A | 1.01 |
| U8A G9A U10A U11G C12G | 1.15 |
| U8A G9A U10A U11G C12U | 1.15 |
| U7G U10C U11G C12A | 1.12 |
| U7G U10C U11G C12G | 1.15 |
| U7G U10C U11G C12U | 1.2 |
| U8A G9A U10A C13A | 1.26 |
| U8A G9A U10A C13U | 1.2 |
| U8A G9A U10A C13G | 1.1 |
| U7G U10C U11C C13A | 1.06 |
| U7G U10C U11C C13U | 1.05 |
| U7G U10C U11C C13G | 1.01 |
| U7G U11A C12U C13A | 1.19 |
| U7G U11A C12U C13U | 1.28 |
| U7G U11A C12U C13G | 1.14 |
| U7G U10G U11G C13U | 1.2 |
| U7G U10G U11G C13A | 1.16 |
| U7G U10G U11G C13G | 1.18 |
| U8A G9A U10C U11A C12A C13A | 1.16 |
| U8A G9A U10C U11A C12A C13G | 1.24 |

| Variant | aptazyme ON/OFF ratio |
| --- | --- |
| U8A G9A U10C U11A C12A C13U | 1.17 |
| U7G U10G C12G | 1.09 |
| U7G U10G C12A | 1.22 |
| U7G U10G C12U | 1.39 |
| U7G U10C U11C C12A | 1.1 |
| U7G U10C U11C C12G | 1.13 |
| U7G U10C U11C C12U | 1.12 |
| U7G U10G U11C C12G C13A | 1.14 |
| U7G U10G U11C C12G C13U | 1.35 |
| U7G U10G U11C C12G C13G | 1.07 |
| U7G U10C U11G C12U C13G | 1.13 |
| U7G U10C U11G C12U C13A | 1.11 |
| U7G U10C U11G C12U C13U | 1.18 |
| U8A G9A U10C U11A C12A | 1.31 |
| U8A G9A U10C U11A C12U | 1.19 |
| U8A G9A U10C U11A C12G | 1.26 |
| U8A C12G C13G | 1.18 |
| U8A C12G C13A | 1.48 |
| U8A C12G C13U | 1.24 |
| U8A G9A U10A U11G C12G C13U | 1.29 |
| U8A G9A U10A U11G C12G C13G | 1.4 |
| U8A G9A U10A U11G C12G C13A | 1.21 |
| U8A G9A U10A U11A | 1.35 |
| U8A G9A U10A U11G | 1.34 |

| Variant | aptazyme ON/OFF ratio |
| --- | --- |
| U8A G9A U10A U11C | 1.05 |
| U8A G9A U10A C12U C13G | 1.24 |
| U8A G9A U10A C12U C13U | 1.33 |
| U8A G9A U10A C12U C13A | 1.2 |
| U7G U10C C12G C13U | 1.14 |
| U7G U10C C12G C13A | 1.09 |
| U7G U10C C12G C13G | 1.04 |
| U8A G9A C12G | 1.41 |
| U8A G9A C12U | 1.33 |
| U8A G9A C12A | 1.34 |
| U7G U10G U11A C12G C13G | 1.13 |
| U7G U10G U11A C12G C13A | 1.11 |
| U7G U10G U11A C12G C13U | 1.1 |
| U7G U10A U11C C12U | 1.05 |
| U7G U10A U11C C12G | 1.3 |
| U7G U10G C12U C13A | 1.18 |
| U7G U10G C12U C13U | 1.43 |
| U7G U10G C12U C13G | 1.24 |
| U7G U10C U11A C12G C13A | 1.07 |
| U7G U10C U11A C12G C13G | 1.11 |
| U7G U10C U11A C12G C13U | 1.06 |
| U7G U11A | 2.37 |
| U7G U11G | 1.32 |
| U7G U11C | 1.11 |

| Variant | aptazyme ON/OFF ratio |
| --- | --- |
| U8A G9A U10A U11A C13A | 1.27 |
| U8A G9A U10A U11A C13G | 1.06 |
| U8A G9A U10A U11A C13U | 1.09 |
| U7G U10G U11C | 1.07 |
| U7G U10G U11A | 1.21 |
| U7G U10G U11G | 1.53 |
| U7G U10G U11C C12U C13U | 1.25 |
| U7G U10G U11C C12U C13A | 1.08 |
| U7G U10G U11C C12U C13G | 1.3 |
| U7G U10C U11C C12G C13U | 1.06 |
| U7G U10C U11C C12G C13A | 1.1 |
| U7G U10C U11C C12G C13G | 1.08 |
| U7G U10G U11C C13G | 1.07 |
| U7G U10G U11C C13U | 1.13 |
| U7G U10G U11C C13A | 1.11 |
| U7G U10C C12A | 1.12 |
| U7G U10C C12U | 1.2 |
| U7G U10C C12G | 1.26 |
| U7G U10G C13U | 1.17 |
| U7G U10G C13A | 1.29 |
| U7G U10G C13G | 1.13 |
| U7G U11G C12A | 1.11 |
| U7G U11G C12U | 1.2 |
| U7G U11G C12G | 1.23 |

| Variant | aptazyme ON/OFF ratio |
| --- | --- |
| U7G U10C C13U | 1.03 |
| U7G U10C C13G | 1.04 |
| U7G U10C C13A | 1.04 |
| U7G U11C C13U | 1.07 |
| U7G U11C C13A | 1.03 |
| U7G U11C C13G | 1.08 |
| U8A G9A U10A U11A C12A | 1.24 |
| U8A G9A U10A U11A C12U | 1.13 |
| U8A G9A U10A U11A C12G | 1.24 |
| U8A G9A C12G C13G | 1.2 |
| U8A G9A C12G C13A | 1.36 |
| U8A G9A C12G C13U | 1.18 |
| U8A G9A U10A U11G C12U C13A | 1.3 |
| U8A G9A U10A U11G C12U C13G | 1.18 |
| U8A G9A U10A U11G C12U C13U | 1.4 |
| U7G U10C U11A C12A C13G | 1.06 |
| U7G U10C U11A C12A C13U | 1.16 |
| U7G U10C U11A C12A C13A | 1.17 |
| U7G U10C U11G C12G C13A | 1.11 |
| U7G U10C U11G C12G C13G | 1.07 |
| U7G U10C U11G C12G C13U | 1.05 |
| U7G U10G U11A C13A | 1.11 |
| U7G U10G U11A C13U | 1.11 |
| U7G U10G U11A C13G | 1.07 |

| Variant | aptazyme ON/OFF ratio |
| --- | --- |
| U8A G9A U10A U11A C12G C13G | 1.18 |
| U8A G9A U10A U11A C12G C13A | 1.29 |
| U8A G9A U10A U11A C12G C13U | 1.16 |
| U8A G9A U10C C12G C13U | 1.22 |
| U8A G9A U10C C12G C13A | 1.19 |
| U8A G9A U10C C12G C13G | 1.24 |
| U8A G9A U10A U11G C13A | 1.12 |
| U8A G9A U10A U11G C13U | 1.18 |
| U8A G9A U10A U11G C13G | 1.08 |
| U8A G9A U10A U11G C12A C13G | 1.18 |
| U8A G9A U10A U11G C12A C13A | 1.03 |
| U8A G9A U10A U11G C12A C13U | 1.11 |
| U7G U10A U11G C12A C13A | 1.06 |
| U7G U10A U11G C12A C13G | 1.09 |
| U7G U10A U11G C12A C13U | 1.11 |
| U8A G9A U10A U11A C12A C13G | 1.1 |
| U8A G9A U10A U11A C12A C13U | 1.27 |
| U8A G9A U10A U11A C12A C13A | 1.29 |
| U7G U10C U11A C13U | 1.16 |
| U7G U10C U11A C13G | 1.06 |
| U7G U10C U11A C13A | 1.08 |
| U7G U10A U11C C12A C13U | 1.18 |
| U7G U10C U11A C12G | 1.18 |
| U7G U10C U11A C12U | 1.2 |

| Variant | aptazyme ON/OFF ratio |
| --- | --- |
| U7G U10C U11A C12A | 1.18 |
| U8A G9A U10C U11A C13G | 1.07 |
| U8A G9A U10C U11A C13A | 1.11 |
| U8A G9A U10C U11A C13U | 1.15 |
| U7G U10A U11G | 1.71 |
| U8A G9A U10A U11A C12U C13U | 1.21 |
| U8A G9A U10A U11A C12U C13A | 1.37 |
| U8A G9A U10A U11A C12U C13G | 1.1 |
| U8A G9A U10C C13G | 1.04 |
| U8A G9A U10C C13A | 1.06 |
| U8A G9A U10C C13U | 1.11 |
| U8A G9A U10A U11C C12U C13U | 1.15 |
| U8A G9A U10A U11C C12U C13G | 1.17 |
| U8A G9A U10A U11C C12U C13A | 1.14 |
| U8A G9A U10A U11C C12U | 1.08 |
| U8A G9A U10A U11C C12A | 1.09 |
| U8A G9A U10A U11C C12G | 1.13 |
| U7G U11G C12G C13A | 1.09 |
| U7G U11G C12G C13G | 1.14 |
| U7G U11G C12G C13U | 1.04 |
| U7G U11A C12A C13G | 1.14 |
| U7G U11A C12A C13A | 1.17 |
| U7G U11A C12A C13U | 1.22 |
